“Also recorded” adds a separate entry of the source.

These results are taken from US20250221936A1, “ENGINEERED HEMICHANNELS, ENGINEERED VESICLES, AND USES THEREOF” (VIRGINIA TECH INTELLECTUAL PROPERTIES, INC., priority 2018, published 2025).

Type in all cases: binding
Experiment [1] deals with T1, Cx43 CT (amino acids 255 to 382) (Rattus norvegicus, UniProt P08050).
T1 construct: Cx43-CT: amino acids 255 to 382; GST (N, cleaved yes); made in house; host or cells: E. coli BL21
The experiment in a line: Surface plasmon resonance, Cx43 CT analyte. The following applies: biotin-peptide immobilized on streptavidin chip; analyte 0.5 to 15 μM. Here is the method:
Efficacy of the interaction of each alpha CT1 variant with Cx43 CT or Cx43 CT-KK/QQ was tested using surface plasmon resonance (SPR) as described previously 20. In brief, SPR experiments were performed using a Biacore T200 (GE Healthcare). Equal amounts (response units/RU) of biotin-alpha CT1 variants were immobilized on each flow cell of a streptavidin-coated sensor chip (Biacore Inc) using immobilization buffer (in mM: 10 HEPES, 1 EDTA, 100 NaCl, 0.005% Tween-20) at pH 7.4. Measurements with wild-type (wt) Cx43 CT and mutant Cx43 CT-KK/QQ analytes were done in running buffer (in mM: 10 HEPES, 100 NaCl, pH 7.4) at a flow rate of 30 μl/min. Binding of analytes were verified at different concentrations, in random order (injection volume 120 μl). Interacting proteins were then unbound by injection of […] regeneration buffer (50 mM NaOH and 1 M NaCl) at a flow rate of 10 μl/min. Background levels were obtained from a reference cell containing a biotin-control peptide in which the reversed sequence of the last 9 amino acids of Cx43 was fused to biotin-antennapedia. The RU values obtained with biotin-control peptide were subtracted from the RU values obtained with the different biotin-alphaCT1 variants (wild-type or mutant) to generate the different response curves.

In another experiment the target is T2, Cx43 CT (Rattus norvegicus, UniProt P08050).
T2 construct: CT: amino acids 255 to 382) alone; GST (N); made in house; host or cells: E. coli BL21
The experiment in a line: Protein thermal shift assay, Cx43 CT. The following applies: 500 μg/ml protein, 25-100 μM peptide. Here is the method:
Thermal stability of recombinant GST-PDZ2 or Cx43 CT in the presence or absence of peptides was determined in a 96-well format. Each assay well was composed of 500 μg/ml protein, 25-100 μM of each peptide in PBS buffer, pH7.4. All assays were performed independently six times. Samples were generally prepared in 96-well plates at final volumes of 20 μL. The fluorescent dye SYPRO Orange (5000× concentrate in DMSO, ThermoFisher, S6650) was added to a final concentration of 8X. Reactions were run on QuantStudio 6 Flex Real-Time PCR system (Applied Biosystems, part of Life Technologies Corporation, CA) according to the manufacturer's recommendations using a melt protocol in 0.05-degree/see increments from 25° C. to 95° C. The Reporter Dye was “ROX” and quencher Dye and passive reference were selected as “None” for the melt curve according to manufacturer's instructions. The data were analyzed using Protein Thermal Shift™ Software v1.3 package (Applied Biosystems, CA).

A further experiment has as its target T3, ZO-1 PDZ2 (Homo sapiens, UniProt Q07157).
T3 construct: the second of the three PDZ (PDZ2) domains of ZO-1; made in house; host or cells: E. coli BL21
T3 sequence (Q07157 186-264 limits assumed): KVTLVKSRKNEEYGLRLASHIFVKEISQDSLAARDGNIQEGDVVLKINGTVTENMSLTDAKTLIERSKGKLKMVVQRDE
In words: EDC cross-linking to GST fusion ZO-1 PDZ domains. Particulars: 5, 25 and 50 μM. Here is the method:
To characterize the interaction between the Cx43 CT substrate and peptides, the in vitro kinase assay was performed as above with modification and the constituents then subjected to a cross-linking reaction. The assay buffer used was 20 mM 3-(N-morpholino) propanesulfonic acid (MOPS), pH 7.2. All other reagents present in the kinase reaction were maintained as described above. The reaction was allowed to proceed at 37° C. for 15 minutes. Afterwards, the carbodiimide crosslinker 1-Ethyl-3-(3-dimethylaminopropyl) carbodiimide HCl (EDC) (Thermo, 22980) was added to each solution for a final concentration of 20 mM. The solution was allowed to cross-link for one hour at room temperature. The reaction was stopped by the addition of 4×LDS loading buffer, boiled for 5 minutes and subsequently separated by PAGE. The resulting gel was stained in Coomassie brilliant blue (Sigma, B0770) for two hours and destained in a solution of 4% methanol 7% acetic acid overnight. Gel bands were subsequently excised for mass spectrometric analysis. For the direct interaction between protein and peptides, PBS, pH 7.5 was used as the coupling buffer. The protein (50 μg/ml) and peptide (25 μM) were allowed to react at room temperature for one hour before EDAC was added to the reaction mixture. The reaction was Western blotted for Cx43, GST or NeutroAvidin.

T2 sequence (P08050 255-382): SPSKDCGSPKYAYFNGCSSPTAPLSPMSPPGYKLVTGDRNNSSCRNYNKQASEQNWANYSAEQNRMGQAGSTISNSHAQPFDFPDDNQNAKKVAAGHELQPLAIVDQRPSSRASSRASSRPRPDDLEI
T1 sequence (P08050 255-382): as above

Take “RQPKIWFPNRRKPWKK RPRPAALAI (RQPKIWFPNRRKPWKKRPRPAALAI) [M1 AALAI]”: the “SPR binding to Cx43 CT” value in experiment [1] is “loss of Cx43 CT binding competence”. The “Cx43 CT melt temperature (Tm)” value with Cx43 CT is reported as “no propensity to alter Cx43 CT thermal stability”.
For RQPKIWFPNRRKPWKKRPRPDDLAI [M3 DDLAI] the same measures were “abrogated peptide interaction with Cx43 CT” and “no propensity to alter Cx43 CT thermal stability”.
For the sequence RQPKIWFPNRRKPWKKRPRPDDLE [alpha CT1-I], the “interaction with ZO-1 PDZ2” value in the experiment with ZO-1 PDZ2 is recorded as “incompetent to interact; also recorded: abrogates interaction with ZO-1 PDZ2”. Further, the “Cx43 CT melt temperature (Tm)” value in the experiment with Cx43 CT is given as “highly significant decreases in melt temperature”.
For RQPKIWFPNRRKPWKKRPRPDDLEI [alpha CT1] the same measures were “selectivity of alpha CT1 for ZO-1 PDZ2” and “highly significant decreases in melt temperature”.
